Type in all cases: cell-based
For experiment [1], the system named is E. coli cells containing pAX1967 (GRG51). Nature of the experiment: Glyphosate screen on M63+ plates, GRG51-expressing cells. The following applies: 2 days, 37° C. The protocol: Cells containing pAX1967 were plated onto M63+ plates containing antibiotic and either 0 mM or 20 mM glyphosate. Growth was scored after two days growth at 37° C.
Experiment [2] concerns E. coli strain DH5α with pUC18-Grg23 (pAX1927). Nature of the experiment: Growth on glyphosate plates, grg23-expressing cells. The settings on record: concentration to which resistance is conferred. The protocol:
Isopropyl-B-D-thiogalactopyranoside (IPTG; 0.1 mM) was also added to the plates. As a control, cells containing pUC18 vector alone were transformed and streaked onto glyphosate plates.

The subject of experiment [3] is BL21*DE3 E. coli cells. The experiment in a line: Selection of mutant GRG23 enzymes conferring glyphosate resistance in E. coli on 150 mM glyphosate plates. The settings on record: clones selected on 150 mM glyphosate; extract activity equal to or superior to GRG23. The protocol:
The mutagenized syngrg23 libraries were transformed into E. coli strain BL21*DE3 star (Invitrogen). Following transformation, individual colonies were plated on 1× M63 medium containing 150 mM glyphosate to select for clones that had retained enzymatic activity and growth tolerance.
The plates were incubated for 36 hours at 37° C.
Library plates of extracts of mutagenized syngrg23 clones were assayed for improved enzymatic activity as follows: Library clones were pinned into 96-well blocks containing LB medium and were grown to an O.D. of about 0.6. IPTG was then added (0.5 mM) and the blocks were incubated overnight at 20° C. to induce protein expression. Protein extracts were prepared from the cell pellets using POP culture reagent (Novagen), and the enzymatic activity in the crude lysates was measured. […] The DNA sequences of the clones corresponding to these extracts were determined.

Substitutions are numbered along the chain they refer to.

Regarding `O=C(O)CNCP(=O)(O)O` [glyphosate, N-phosphonomethylglycine], in experiment [1], the resistance to glyphosate was determined as 20 mM. Also, the glyphosate resistance result in experiment [2] is on record as “at least 100 mM”.

B1: GRG23(L3P1.B20): GRG23 variant (SEQ ID NO:27), V206→I (protein)
chain: METDRLVIPGSKSITNRALLLAAAAKGTSVLVRPLVSADTSAFKTAIQALGANVSADGDNWVVEGLGQAPHLDADIWCEDAGTVARFLPPFVAAGQGKFTVDGSEQLRRRPLRPLVDGIRHLGARVSSEQLPLTIEASGLAGGEYEIEAHQSSQFASGLIMAAPYARQGLRVRIPNPVSQPYLTMTLRMMRDFGLETSTDGATVSIPPGRYTARRYEIEPDASTASYFAAASAVSGRSFEFQGLGTDSIQGDTSFFNVLGRLGAEVHWAPNSVTISGPERLNGDIEVDMGEISDTFMTLAAIAPLADGPITITNIGHARLKESDRISAMETNLRTLGVQTDVGHDWMRIYPSTPHGGRVNCHRDHRIAMAFSILGLRVDGITLDDPQCVGKTFPGFFDYLGRLFPEKALTLPG
modifications: grg23(L3P1.B20)
As to B1, the “Glyphosate resistance of GRG23 variants” value in experiment [3] is recorded as “retained glyphosate resistance”.

B2: GRG23(L3P1.F18): GRG23 variant (SEQ ID NO:31), T274→I (protein)
chain: B1 chain with I206V, T274I
modifications: grg23(L3P1.F18)
Turning to B2, the “Glyphosate resistance of GRG23 variants” value in experiment [3] is listed as “retained glyphosate resistance”.

B3: GRG23(L3P1.B3): GRG23 variant (SEQ ID NO:29), D75→H, E217→K (protein)
chain: B1 chain with D75H, I206V, E217K
modifications: grg23(L3P1.B3)
For B3, the “Glyphosate resistance of GRG23 variants” value in experiment [3] was “retained glyphosate resistance”.

For the origin of these results see patent US7674958B2 (Athenix Corporation, priority 2005, dated 2010).
